Molecular target: Human Type IV Collagen (human) (UniProt P02462)
Assay: ELISA

Human Type IV Collagen (human), sequence (P02462 173-1669): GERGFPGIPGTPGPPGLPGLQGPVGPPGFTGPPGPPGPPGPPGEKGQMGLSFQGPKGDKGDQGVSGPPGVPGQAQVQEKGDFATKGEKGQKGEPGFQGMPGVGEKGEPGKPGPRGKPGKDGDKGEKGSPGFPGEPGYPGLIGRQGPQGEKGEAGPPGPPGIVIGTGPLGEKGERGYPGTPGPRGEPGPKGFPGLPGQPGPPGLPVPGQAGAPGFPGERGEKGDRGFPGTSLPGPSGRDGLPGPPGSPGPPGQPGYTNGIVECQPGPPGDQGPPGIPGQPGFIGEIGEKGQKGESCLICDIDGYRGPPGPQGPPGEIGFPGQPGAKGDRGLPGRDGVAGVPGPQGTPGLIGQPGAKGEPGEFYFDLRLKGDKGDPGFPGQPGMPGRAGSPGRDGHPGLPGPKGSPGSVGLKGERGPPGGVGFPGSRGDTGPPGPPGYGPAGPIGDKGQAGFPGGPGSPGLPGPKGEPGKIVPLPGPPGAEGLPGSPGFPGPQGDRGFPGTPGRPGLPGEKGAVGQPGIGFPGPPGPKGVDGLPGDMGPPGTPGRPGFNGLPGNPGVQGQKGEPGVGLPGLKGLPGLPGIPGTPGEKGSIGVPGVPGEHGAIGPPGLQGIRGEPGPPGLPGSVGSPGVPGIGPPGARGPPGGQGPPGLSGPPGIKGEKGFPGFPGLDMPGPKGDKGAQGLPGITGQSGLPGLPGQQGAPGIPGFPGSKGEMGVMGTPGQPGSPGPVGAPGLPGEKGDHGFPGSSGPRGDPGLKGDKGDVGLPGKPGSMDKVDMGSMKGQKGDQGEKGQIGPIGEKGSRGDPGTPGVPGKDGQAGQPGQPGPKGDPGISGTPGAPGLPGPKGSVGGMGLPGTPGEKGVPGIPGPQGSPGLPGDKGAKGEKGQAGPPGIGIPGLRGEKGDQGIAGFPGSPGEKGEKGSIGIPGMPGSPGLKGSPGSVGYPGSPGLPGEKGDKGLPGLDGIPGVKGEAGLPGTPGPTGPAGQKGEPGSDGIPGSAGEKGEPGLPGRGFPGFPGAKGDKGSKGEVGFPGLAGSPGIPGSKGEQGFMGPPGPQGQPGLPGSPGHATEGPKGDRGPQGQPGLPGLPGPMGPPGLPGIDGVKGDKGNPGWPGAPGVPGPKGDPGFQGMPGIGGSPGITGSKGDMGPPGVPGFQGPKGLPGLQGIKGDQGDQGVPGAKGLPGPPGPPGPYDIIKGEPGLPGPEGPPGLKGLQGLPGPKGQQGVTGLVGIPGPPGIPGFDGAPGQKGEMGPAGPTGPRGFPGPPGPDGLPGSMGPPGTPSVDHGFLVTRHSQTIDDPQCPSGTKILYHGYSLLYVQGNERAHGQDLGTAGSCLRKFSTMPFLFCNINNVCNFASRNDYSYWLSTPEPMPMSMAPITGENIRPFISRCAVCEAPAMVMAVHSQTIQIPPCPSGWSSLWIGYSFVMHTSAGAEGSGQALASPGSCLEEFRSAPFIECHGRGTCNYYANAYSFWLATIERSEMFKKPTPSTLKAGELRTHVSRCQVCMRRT

von Willebrand factor (human, plasma) (from UniProt P04275 764-2813) (natural protein)
percent reduction of binding by 10 μg/ml ARC1779 against saline: 34%
